Consider two molecules from PMC10102205, “Active and stable alcohol dehydrogenase-assembled hydrogels via synergistic bridging of triazoles and metal ions” (Nature Communications, 2023).

Data set [1] deals with T1, TbSADH (Thermoanaerobacter brockii, UniProt P14941).
T1 construct: gene adh; recombinant from E. coli BL21(DE3), pET28a or pET22b vector, purified by AKTA; homotetramer
T1 sequence (P14941 1-352): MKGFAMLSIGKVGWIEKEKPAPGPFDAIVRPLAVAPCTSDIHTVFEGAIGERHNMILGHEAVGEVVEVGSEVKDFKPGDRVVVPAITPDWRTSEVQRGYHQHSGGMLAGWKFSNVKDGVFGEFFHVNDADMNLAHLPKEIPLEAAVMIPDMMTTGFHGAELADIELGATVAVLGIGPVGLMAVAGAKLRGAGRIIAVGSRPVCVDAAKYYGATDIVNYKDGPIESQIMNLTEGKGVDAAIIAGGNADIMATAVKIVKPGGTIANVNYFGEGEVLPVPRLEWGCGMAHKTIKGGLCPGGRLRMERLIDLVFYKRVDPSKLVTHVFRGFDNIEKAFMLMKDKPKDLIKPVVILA
In words: isothermal titration calorimetry. Type of data set: binding.

Substrate in data set [2]: CC(=O)c1ccccc1
In words: asymmetric reduction, chiral HPLC, Michaelis–Menten fit. In kind it is biochemical, Thermoanaerobacter brockii. Particulars: free enzyme, not gelated, general assay: NADP^+ 1 mM, 10% IPA, phosphate buffer 50 mM pH 7.4, 30 °C.

`Cc1nnc[nH]1` [3-Me-3N, 1H-3-methyl-1,2,4-triazole] yielded a Kd in data set [1] of 770 µM.

B1: TbSADH (Thermoanaerobacter brockii) (protein)
chain: T1 sequence (P14941 1-352)
notes: recombinant from E. coli BL21(DE3), pET28a or pET22b vector, purified by AKTA; homotetramer
For B1, in data set [2], the Km was 17.86 mM and the kcat was 2.46 s⁻¹.
